Residue numbers refer to the chain shown, from its start. Square brackets hold non-standard residues; d marks the D form. Ends that are not written are not given here. pS = N[C@@H](COP(=O)(O)O)C(=O)O

Common to all, as to experiment: FP
In experiment [1] the target is GABARAPL2 (UniProt P60520 1-117).
Experiment [2] addresses LC3A (UniProt Q9H492 1-121).
The target of experiment [3] is T1, LC3C (UniProt Q9BXW4 1-126).
T1 chain: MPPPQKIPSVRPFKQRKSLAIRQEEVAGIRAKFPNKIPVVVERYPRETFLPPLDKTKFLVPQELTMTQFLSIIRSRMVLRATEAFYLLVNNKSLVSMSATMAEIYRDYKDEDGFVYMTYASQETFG

In experiment [4] the target is LC3B (UniProt Q9GZQ8 1-120).
Experiment [5] addresses 1 (UniProt Q9H0R8 1-117).
Experiment [6] has as its target T2, FIP200 Claw domain (residues 1490–1594) (human, UniProt Q8TDY2 1490-1594).
T2 chain: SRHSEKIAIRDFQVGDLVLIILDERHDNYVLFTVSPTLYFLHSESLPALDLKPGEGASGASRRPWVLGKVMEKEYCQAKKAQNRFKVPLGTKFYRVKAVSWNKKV

In experiment [7] the target is T3, FIP200 Claw Y1564S (human).
T3 chain: T2 chain with Y75S

Experiment [8] deals with T4, FIP200 Claw F1574Q (human).
T4 chain: T2 chain with F85Q

The target of experiment [9] is T5, FIP200 Claw R1573E (human).
T5 chain: T2 chain with R84E

Experiment [10] deals with T6, FIP200 Claw K1569A (human).
T6 chain: T2 chain with K80A

1, sequence (Q9H0R8 whole entry, the tested form may be a part): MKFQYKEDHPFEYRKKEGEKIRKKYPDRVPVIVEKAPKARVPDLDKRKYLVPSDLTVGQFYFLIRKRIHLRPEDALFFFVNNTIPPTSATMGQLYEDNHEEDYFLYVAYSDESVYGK
GABARAPL2, sequence (P60520 whole entry): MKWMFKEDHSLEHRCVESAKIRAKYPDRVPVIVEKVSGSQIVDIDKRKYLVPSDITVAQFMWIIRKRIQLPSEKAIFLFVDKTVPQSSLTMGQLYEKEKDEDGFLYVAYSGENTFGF

Regarding TASDDSDIVTLEPPK (also: N-terminal FITC only in fluorescence polarisation assay form) [CCPG1 FIR2 synthetic peptide (residues 99–113)], the Kd (as a rule, the free concentration of one partner at which half of the binding sites on the other are occupied at equilibrium, for simple one-to-one binding) in [1] was found to be 123 µM; in experiment [2] it was 37.3 µM; in experiment [3] it was 39.8 µM; in [4], 40.7 µM; in experiment [5], 37.3 µM; in experiment [6] it was 12.3 µM.

Take TASDDSDIVTLEPPK (domain or fragment) [CCPG1 FIR2 (residues 99–113), recombinant]: the Kd in experiment [7] came out at 79.5 µM; in [8], 120 µM; in experiment [9], 138 µM; in experiment [10], 105 µM.

For TASDD[pS]DIVTLEPPK (also: N-terminal FITC in fluorescence polarisation assay only) [phospho-CCPG1 FIR2 synthetic peptide (p-CCPG1 FIR2)], the Kd in [1] came to 34.5 µM; in experiment [2] it was 15.3 µM; in experiment [3], 11 µM; in experiment [4], 20.6 µM; in [5], 15.3 µM; in experiment [6], 0.72 µM.
